Experiment: yeast display, Sf9 membrane polyspecificity reagent, FACS + sequencing; frameworks hold sequencing errors
Outline: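 In a synthetic yeast display library (Saccharomyces cerevisiae BJ5465), nanobody expression was induced with galactose for 36–48 hours. FACS gates were set low and high (top ~1%) using anti-HA fluorescence for expression and streptavidin fluorescence for binding of the Sf9 membrane reagent. Each polyreactivity label is drawn from the gate of origin.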

Q: With “QVQLVESGGGLVQAGGSLRLSCADSGVIFVGYAMGGYRQAHGKERELVASIDGRVGSTYYADSVKGRFTISRDNAKITVYLQMNSLKPEDTAVYYCAAGGRAVRIYWGYYRTSYDYWGQGTQVTVSS” as the sequence, how does the “polyreactivity (PSR sort gate)” value read?
A: The value was “low polyreactivity”.

Q: For “QVQLVESGGGLVQAGGSLRLSCADSGYIFYPYTMGWYRQAPGKEMELDAAITWSGSTYYADSVKGRFTISRDNAKNTVYLQMNSLKPEDTAVYYCAADFDSYDSYTYLQYDYWGQGTQVTVSS”, which “polyreactivity (PSR sort gate)” value is on record?
A: The value was “low polyreactivity”.

Q: Which “polyreactivity (PSR sort gate)” value does the source give for “QVQLVESGGGLVQAGGSLRLSCADTGLILVLNAMGCYRQAPGKERELVADITSGGSTYYADSVKGRFTISRDNAKNSVYLQMNSLKPEDTAVYYCATDQGGYYENDYWGQGTKVTVSS” here?
A: Its value is “low polyreactivity”.

Q: For “QVQLVESGGGLVQAGGSLRLSCAESGLILAGYTMGWYRQAPGKESELVAAISDRGGSTYYADSVKGRFTISRDNAKNTVYLQMNSLKPEDTAVYYCNAFVYSYALTPSYAGDYWGQGTQVTVSS”, which “polyreactivity (PSR sort gate)” value is on record?
A: The value was “low polyreactivity”.

Q: For “QVQLVESGGGLVQAGGSLRLSCAGSGFIFAQNTMGWYRQAPGKERELVAAITRRGGSTYYADSVKGRFTISRDNAKTTVYLQMNSLKPEDTAVYYCARATVGAWRKMYSWGQGTQVTVSS”, which “polyreactivity (PSR sort gate)” value is on record?
A: The value was “high polyreactivity”.

Q: With “QVQLVESGGGLVQAGGSLRLSCAGSGGIFGSNAMGWYREAPGKERALVAAISWRGGSTYYADSVKGRFTISRDNAKNSVYLQMNSLKPEDTAGYYCAARYRWGYSTSYSYRFHYWGQGTQVTVSS” as the sequence, how does the “polyreactivity (PSR sort gate)” value read?
A: The value was “high polyreactivity”.

Q: For “QVQLVESGGGLVQAGGSLRLSCAGSGGPFLDYIGWYRQAPGKEMVLVAAITFSGGSTYYADSVKGRLTISRENAKNTVYVQMNSLKPDDTAVYFCAAGWYDWPKYLLGGYTYYLYDSWRQGTQVTVSS”, which “polyreactivity (PSR sort gate)” value is on record?
A: The value was “low polyreactivity”.

Q: With “QVQLVESGGGLVQAGGSLRLSCAGSGSTFHPYAMGWYRQAPGKVRELVAAITWGGGSTYYADSVKGRITISRDNAKNTVYLQMNSLKPEDTAVYYCNAYTLYWPDYDYWGQGTQVTVSS” as the sequence, how does the “polyreactivity (PSR sort gate)” value read?
A: Its value is “low polyreactivity”.

Q: Which “polyreactivity (PSR sort gate)” value does the source give for “QVQLVESGGGLVQAGGSLRLSCAGSGSTFLYYAMGWYRQAPGKERELVAVITYSDGGTYYADSVKGRFTISRDNAKNTVYLEMNSLKPEDTAVYYCAKDYRAYAGHYTWTWHEYGYWGQGTQVTVSS” here?
A: The value was “low polyreactivity”.

Q: With “QVQLVESGGGLVQAGGSLRLSCAGSGSTSYNDMGWYRQAPGKEREMGASITSSGDDTYYADSVKGRFTISRDNAKNTVYLQMNSLKPEDTAVYYCAAEDYHRHVGSDFVIDYDYWGQGTQVTVSS” as the sequence, how does the “polyreactivity (PSR sort gate)” value read?
A: The value was “low polyreactivity”.

Q: With “QVQLVESGGGLVQAGGSLRLSCAGSGYIFAYNTIGWYRQAPGKERELVAAISRSGGSTYYPDSVKGRFTISRDNAKNTVYLQMNSLKPEDTAVYYCAARYSGYRVGQRSFCYWGQGTQVTVSS” as the sequence, how does the “polyreactivity (PSR sort gate)” value read?
A: Its value is “high polyreactivity”.

Q: With “QVQLVESGGGLVQAGGSLRLSCAHSGSSFYRYSMRWYIQAPGKERELDAAISTSGGRTYYADSVKGRFSISRDNAKNTVYLQMNSLKPEDTAVYYCAADQYRYYRSTYDYWGQGTQVTVSS” as the sequence, how does the “polyreactivity (PSR sort gate)” value read?
A: The value was “high polyreactivity”.

Q: For “QVQLVESGGGLVQAGGSLRLSCAPSGFIFQANAMGWYRQAPGKERELLAAIDDGDSTYADSVKGRFTISRDNAKNTVYLQLNSLKPEDTAVYFCATRRNRSYDYWGQGTQVTVSS”, which “polyreactivity (PSR sort gate)” value is on record?
A: Its value is “low polyreactivity”.

Q: For “QVQLVESGGGLVQAGGSLRLSCAPSGFIYHWNAMGWYRQAPGKERELLAAITWRGTNTYYADSVKGRFTISRDNAKNTVYLQMNRLKPEDTAVYYCAARYVTYYGTFDYWGLGTQVTVSS”, which “polyreactivity (PSR sort gate)” value is on record?
A: Its value is “low polyreactivity”.

Q: With “QVQLVESGGGLVQAGGSLRLSCAPSGFTFGLYAMGWYRQAPGKERELVAAISWSGGRTYYADSVKGRFTISRDNAKNTVYLQMNSLKPEDTAVYYCAAVNKARSEDYGYWGQGTQVTVSS” as the sequence, how does the “polyreactivity (PSR sort gate)” value read?
A: Its value is “high polyreactivity”.

Q: Which “polyreactivity (PSR sort gate)” value does the source give for “QVQLVESGGGLVQAGGSLRLSCAPSGFTFGSNAMGWYRQAPGKERELVAAITWRGGSTYYADSVKGRFTISRDNAKNTVYLQMNSLKPEDTAVYYCAAVRSASSWQYIWLKYYYWGQGTQVTVSS” here?
A: Its value is “high polyreactivity”.

Q: Which “polyreactivity (PSR sort gate)” value does the source give for “QVQLVESGGGLVQAGGSLRLSCAPSGFTFLWYAMGWYRQAPGKERELVAGISSDGSTNADSVKGRFTISRDNAKNTVYLQMNSLKPEDTAVYYCDADYSSPWQAVQGDDYWGQGTQVNVSS” here?
A: The value was “low polyreactivity”.

Q: Which “polyreactivity (PSR sort gate)” value does the source give for “QVQLVESGGGLVQAGGSLRLSCAPSGFTFRYYAMAWYRQAPGKEREFVAAISWSGGSTYYADSVKGRFTISRDNAKNTVYLQMNSLKPEDTAVYYCAAYYPLWGWGYDYWGQGTQVTVSS” here?
A: The value was “high polyreactivity”.

Q: Which “polyreactivity (PSR sort gate)” value does the source give for “QVQLVESGGGLVQAGGSLRLSCAPSGFTFSRYAMGWYRQAPGKERELVAAITRGGGNTYYADSVKGRFTISRDNAKNTVYLQMNSLKPEDTAVYYCNAQVGNFGYRSGGYDYWGQGTQVTVSS” here?
A: Its value is “high polyreactivity”.

Q: Which “polyreactivity (PSR sort gate)” value does the source give for “QVQLVESGGGLVQAGGSLRLSCAPSGFTIGYYAMGWYRQAPGKEMELVAGISFSGTSTYYADSVKGRFTFSRDNAKNTVYLLMNSLKPEDTAVYYCNKVYYSAASKHKEYWGQGTQVTVSS” here?
A: The value was “high polyreactivity”.

Q: For “QVQLVESGGGLVQAGGSLRLSCAPSGFTSWQYAMGWYRPAPGKERELVAAISVSGASTYYADSVKGRFTISRDNAKNTVYLQMNSLKPEDTAVYYCAAAYVRYPTTRYFYWGQGTQVTVSS”, which “polyreactivity (PSR sort gate)” value is on record?
A: Its value is “high polyreactivity”.

Q: For “QVQLVESGGGLVQAGGSLRLSCAPSGGTFWIYAMGWYRQAPGKERELVAGITTSGATTYYADSVKGRFTISRDNAKNTVYLQMNSLKPEDTAVYYCAAVIRPRYYQVRPRYDYWGQGTQVTVSS”, which “polyreactivity (PSR sort gate)” value is on record?
A: Its value is “low polyreactivity”.

Q: Which “polyreactivity (PSR sort gate)” value does the source give for “QVQLVESGGGLVQAGGSLRLSCAPSGGTYIYAIGWYRQAPGKERDLVAVITSRSGSTYYADSVKGRFTISRDNAKNTVYLQMISLKPEDTAVYYCAAYTRVRTDPGTSFGYWGQCTQVTVSS” here?
A: Its value is “high polyreactivity”.

Q: For “QVQLVESGGGLVQAGGSLRLSCAPSGIIFKGYAMGWSRQAPGKERELVAAISHNADSTYADSVKGRFTISRDNAKNTVYLQMNSLKPEDTAVYYCNADYLYHQTSRGKYYSWGQGTQVTVSS”, which “polyreactivity (PSR sort gate)” value is on record?
A: The value was “low polyreactivity”.

Q: Which “polyreactivity (PSR sort gate)” value does the source give for “QVQLVESGGGLVQAGGSLRLSCAPSGITFFWKAKGWYRQAPGKERELVAAISSGAGTTYADSVKGRFTISRDNAKNTVYLQMNSLKPEDTAVYFCAARRYRYAYGPYNYWGQGSQVTVSS” here?
A: The value was “low polyreactivity”.

Q: For “QVQLVESGGGLVQAGGSLRLSCAPSGITFSHYAMGWYRQAPGKERELVAGITWSGGRTYYADSVKGRFTISRDNAKNTVYLQMNSLKPEDTAVYYCAPIHRTGYDMDYWGLGTQVTVSS”, which “polyreactivity (PSR sort gate)” value is on record?
A: Its value is “low polyreactivity”.

Q: For “QVQLVESGGGLVQAGGSLRLSCAPSGITFTHYVMGWYRQAAGKERELVAAITSGGRTNYADSVKGRFTISRDNAKNTVYLQMNSLIPEDTAVYYCNAVKRVGDYWGRSFDYDYWGQGTKVTVSS”, which “polyreactivity (PSR sort gate)” value is on record?
A: Its value is “high polyreactivity”.

Q: With “QVQLVESGGGLVQAGGSLRLSCAPSGRIFSFNTMVLYRHAPGTEREFVATIRYSGGSTYADSVKGRFTISRDNAKNTVYLQMNSLKPEDTAVYYCAAAWWSYKFNRDFDYWGQGTQVTVSS” as the sequence, how does the “polyreactivity (PSR sort gate)” value read?
A: The value was “low polyreactivity”.

Q: For “QVQLVESGGGLVQAGGSLRLSCAPSGRIFSYFAMGWYRQAPGKERELVAAISGNGGSTYYADSVKGRFTISRDNAKNTVYLQMNSLKPEDTAVYYCAADWWSSDWAYLYPYSYDYWGQGTQVTVSS”, which “polyreactivity (PSR sort gate)” value is on record?
A: Its value is “low polyreactivity”.

Q: With “QVQLVESGGGLVQAGGSLRLSCAPSGRIFTEYVMGWYRQAPGKERELVAAAITRGGSTNYADSVKGRFTISRDNAKNTVYLQMISLKPEDTAVYYFNKDDWPFSRQLYTGKYDSWGQGTQVTVSS” as the sequence, how does the “polyreactivity (PSR sort gate)” value read?
A: The value was “low polyreactivity”.

Q: With “QVQLVESGGGLVQAGGSLRLSCAPSGRIFTGYAMGWYRPEPGQEWELVAASTSSGGSTYYADSVKGRVTISRDYAKNTVYLQMNSLKPEDTAVYYCNKVGRPRYNYWGQGTEVTVSS” as the sequence, how does the “polyreactivity (PSR sort gate)” value read?
A: The value was “high polyreactivity”.

Q: With “QVQLVESGGGLVQAGGSLRLSCAPSGRIIFYNAMGWYRQAPGKERELVAAISIGGRTYYADSVKGRFTISRDNAKNTVYLQMNSLKPEDTAVYYCAALGYPYLRSGYWGQGTQVTVSS” as the sequence, how does the “polyreactivity (PSR sort gate)” value read?
A: Its value is “high polyreactivity”.

Q: With “QVQLVESGGGLVQAGGSLRLSCAPSGRIILRYTMGRYRQARGKERQLVAAISARTTGTYYADSVKGRFTISRDNAKNTFYLQLNSLKPEDTAVYYCAAKCKLSRVLYSWGQGTQVTVSS” as the sequence, how does the “polyreactivity (PSR sort gate)” value read?
A: The value was “low polyreactivity”.

Q: With “QVQLVESGGGLVQAGGSLRLSCAPSGRSFASYAMGWYRQAPGKERELVAAISKSGGRTYYADSVKGRFTISRDNAKNTVYLQMNSLKPEDTAVYYCAAYFWTRSGTPNYDYWGQGTQVTVSS” as the sequence, how does the “polyreactivity (PSR sort gate)” value read?
A: Its value is “high polyreactivity”.

Q: For “QVQLVESGGGLVQAGGSLRLSCAPSGRTFLAYAMGWYRQAPGKEREVVAAISSSGSTTYYADSVKGRFTISRDNAKNTVYLQMNSLKPEDTAVYYCAASNGYRSSYYRYDYWGQGTQVTVSS”, which “polyreactivity (PSR sort gate)” value is on record?
A: Its value is “low polyreactivity”.

Q: Which “polyreactivity (PSR sort gate)” value does the source give for “QVQLVESGGGLVQAGGSLRLSCAPSGRTFQQYAMGCYRQAPGKDREFVAAITFSGGTTYFADSVKGRFTISRDNAKNTVYFQMNSLKPEDTAVYYCAADIYYWSFYYSRYDYWGQGTQVTVSS” here?
A: The value was “high polyreactivity”.

Q: Which “polyreactivity (PSR sort gate)” value does the source give for “QVQLVESGGGLVQAGGSLRLSCAPSGRTFSVNDMGWYRQAPGKERELVAAISFSGGSTYYADSVKGRFTISRDNAKNTVYLQMNSLKPEDTAVYYCAAEAYPSWFYVITGFGIYDYWGQGTQVTVSS” here?
A: Its value is “high polyreactivity”.

Q: For “QVQLVESGGGLVQAGGSLRLSCAPSGRTFWTNAMGWYRQAPGKERELVAAIRNSGGRTYYADSVKGRFTISRDNAKNTVFLQMNSLKPEDSAVYYCNARSSIRPRQGGYEHWGQGTQVTVSS”, which “polyreactivity (PSR sort gate)” value is on record?
A: The value was “low polyreactivity”.

Q: Which “polyreactivity (PSR sort gate)” value does the source give for “QVQLVESGGGLVQAGGSLRLSCAPSGRTLFHYAMGWYRQAPGKERELVAAISSGGRTNYADSVKGRFTISRDNAKNTVYLQMNSLKPEDTAVYYCAARRFYLQHGFEYWGQGTQVTVSS” here?
A: Its value is “high polyreactivity”.

Q: Which “polyreactivity (PSR sort gate)” value does the source give for “QVQLVESGGGLVQAGGSLRLSCAPSGRTVRYNAMGWYRQAPGKERELVARITWSGGRTYYADSVKGRFTISRDNAKNTVYLQMNSLKPEDTAVNYGNAPSIAGYAEYNSHDYWGQGTQVTVSS” here?
A: The value was “high polyreactivity”.
